Source: patent US20210388087A1 (Chugai, published 2021)
Changes are numbered by the printed parent chain.

B1: GLS3000 H27dE (antibody, name in Kabat numbering, V domains shown)
VH: QVQLVESGGGVVQPGRSLRLSCAASGFTFSNAWMHWVRQAPGKGLEWVAQIKAKSNNYATYYAESVKGRFTISRDDSKNSLYLQMNSLKTEDTAVYYCRYVHYGAYYGVDAWGQGTTVTVSS
VL: DIVMTQSPLSLPVTPGEPASISCRSSQSLVESNRNTYLHWYQQKPGQAPRLLIYKVSNRFSGVPDRFSGSGSGTDFTLKISRVEAEDVGVYYCGQGTQVPYTFGQGTKLEIK
notes: one-arm IgG as m2
B2: GLS3000 K50E (antibody, name in Kabat numbering, V domains shown)
VH: B1 VH
VL: B1 VL with E31H, K55E
notes: one-arm IgG as m2
B3: GLS3000 H27dV (antibody, name in Kabat numbering, V domains shown)
VH: B1 VH
VL: B1 VL with E31V
notes: one-arm IgG as m2
B4: GLS3000 H34M (antibody, name in Kabat numbering, V domains shown)
VH: B1 VH
VL: B1 VL with E31H, H39M
notes: one-arm IgG as m2
B5: GLS3000 H27dY (antibody, name in Kabat numbering, V domains shown)
VH: B1 VH
VL: B1 VL with E31Y
notes: one-arm IgG as m2
B6: GLS3000 H27dI (antibody, name in Kabat numbering, V domains shown)
VH: B1 VH
VL: B1 VL with E31I
notes: one-arm IgG as m2
B7: GLS3000 H27dL (antibody, name in Kabat numbering, V domains shown)
VH: B1 VH
VL: B1 VL with E31L
notes: one-arm IgG as m2
B8: GLS3000 K50S (antibody, name in Kabat numbering, V domains shown)
VH: B1 VH
VL: B1 VL with E31H, K55S
notes: one-arm IgG as m2
B9: GLS3000 H27dW (antibody, name in Kabat numbering, V domains shown)
VH: B1 VH
VL: B1 VL with E31W
notes: one-arm IgG as m2
B10: GLS3000 H34R (antibody, name in Kabat numbering, V domains shown)
VH: B1 VH
VL: B1 VL with E31H, H39R
notes: one-arm IgG as m2
B11: GLS3000 H34E (antibody, name in Kabat numbering, V domains shown)
VH: B1 VH
VL: B1 VL with E31H, H39E
notes: one-arm IgG as m2
B12: GLS3000 H34Y (antibody, name in Kabat numbering, V domains shown)
VH: B1 VH
VL: B1 VL with E31H, H39Y
notes: one-arm IgG as m2
B13: GLS3000 K50G (antibody, name in Kabat numbering, V domains shown)
VH: B1 VH
VL: B1 VL with E31H, K55G
notes: one-arm IgG as m2
B14: GLS3000 H27dK (antibody, name in Kabat numbering, V domains shown)
VH: B1 VH
VL: B1 VL with E31K
notes: one-arm IgG as m2
B15: GLS3000 H27dM (antibody, name in Kabat numbering, V domains shown)
VH: B1 VH
VL: B1 VL with E31M
notes: one-arm IgG as m2
B16: GLS3000 H34P (antibody, name in Kabat numbering, V domains shown)
VH: B1 VH
VL: B1 VL with E31H, H39P
notes: one-arm IgG as m2
B17: GLS3000 K50D (antibody, name in Kabat numbering, V domains shown)
VH: B1 VH
VL: B1 VL with E31H, K55D
notes: one-arm IgG as m2
B18: GLS3000 H34L (antibody, name in Kabat numbering, V domains shown)
VH: B1 VH
VL: B1 VL with E31H, H39L
notes: one-arm IgG as m2
B19: GLS3000 H27dT (antibody, name in Kabat numbering, V domains shown)
VH: B1 VH
VL: B1 VL with E31T
notes: one-arm IgG as m2
B20: GLS3000 H27dG (antibody, name in Kabat numbering, V domains shown)
VH: B1 VH
VL: B1 VL with E31G
notes: one-arm IgG as m2
B21: GLS3000 H34W (antibody, name in Kabat numbering, V domains shown)
VH: B1 VH
VL: B1 VL with E31H, H39W
notes: one-arm IgG as m2
B22: GLS3000 K50L (antibody, name in Kabat numbering, V domains shown)
VH: B1 VH
VL: B1 VL with E31H, K55L
notes: one-arm IgG as m2
B23: GLS3000 H34G (antibody, name in Kabat numbering, V domains shown)
VH: B1 VH
VL: B1 VL with E31H, H39G
notes: one-arm IgG as m2
B24: GLS3000 H34K (antibody, name in Kabat numbering, V domains shown)
VH: B1 VH
VL: B1 VL with E31H, H39K
notes: one-arm IgG as m2
B25: GLS3000 K50R (antibody, name in Kabat numbering, V domains shown)
VH: B1 VH
VL: B1 VL with E31H, K55R
notes: one-arm IgG as m2
B26: GLS3000 H34F (antibody, name in Kabat numbering, V domains shown)
VH: B1 VH
VL: B1 VL with E31H, H39F
notes: one-arm IgG as m2
B27: GLS3000 H27dN (antibody, name in Kabat numbering, V domains shown)
VH: B1 VH
VL: B1 VL with E31N
notes: one-arm IgG as m2
B28: GLS3000 H27dF (antibody, name in Kabat numbering, V domains shown)
VH: B1 VH
VL: B1 VL with E31F
notes: one-arm IgG as m2
B29: GLS3000 K50Q (antibody, name in Kabat numbering, V domains shown)
VH: B1 VH
VL: B1 VL with E31H, K55Q
notes: one-arm IgG as m2
B30: GLS3000 H27dS (antibody, name in Kabat numbering, V domains shown)
VH: B1 VH
VL: B1 VL with E31S
notes: one-arm IgG as m2
B31: GLS3000 H34N (antibody, name in Kabat numbering, V domains shown)
VH: B1 VH
VL: B1 VL with E31H, H39N
notes: one-arm IgG as m2
B32: GLS3000 K50A (antibody, name in Kabat numbering, V domains shown)
VH: B1 VH
VL: B1 VL with E31H, K55A
notes: one-arm IgG as m2
B33: GLS3000 K50P (antibody, name in Kabat numbering, V domains shown)
VH: B1 VH
VL: B1 VL with E31H, K55P
notes: one-arm IgG as m2
B34: GLS3000 H34I (antibody, name in Kabat numbering, V domains shown)
VH: B1 VH
VL: B1 VL with E31H, H39I
notes: one-arm IgG as m2
B35: GLS3000 H34T (antibody, name in Kabat numbering, V domains shown)
VH: B1 VH
VL: B1 VL with E31H, H39T
notes: one-arm IgG as m2
B36: GLS3000 H34S (antibody, name in Kabat numbering, V domains shown)
VH: B1 VH
VL: B1 VL with E31H, H39S
notes: one-arm IgG as m2
B37: GLS3000 H34Q (antibody, name in Kabat numbering, V domains shown)
VH: B1 VH
VL: B1 VL with E31H, H39Q
notes: one-arm IgG as m2
B38: GLS3000 H27dQ (antibody, name in Kabat numbering, V domains shown)
VH: B1 VH
VL: B1 VL with E31Q
notes: one-arm IgG as m2
B39: GLS3000 H34D (antibody, name in Kabat numbering, V domains shown)
VH: B1 VH
VL: B1 VL with E31H, H39D
notes: one-arm IgG as m2
B40: GLS3000 H34A (antibody, name in Kabat numbering, V domains shown)
VH: B1 VH
VL: B1 VL with E31H, H39A
notes: one-arm IgG as m2
B41: GLS3000 H27dR (antibody, name in Kabat numbering, V domains shown)
VH: B1 VH
VL: B1 VL with E31R
notes: one-arm IgG as m2
B42: GLS3000 H27dP (antibody, name in Kabat numbering, V domains shown)
VH: B1 VH
VL: B1 VL with E31P
notes: one-arm IgG as m2
B43: GLS3000 H34V (antibody, name in Kabat numbering, V domains shown)
VH: B1 VH
VL: B1 VL with E31H, H39V
notes: one-arm IgG as m2

Molecular target: T1, CD3 epsilon homodimer protein (UniProt P07766 23-126)
T1 construct: also called CD3 (CD3 epsilon)
T1 sequence (P07766 23-126): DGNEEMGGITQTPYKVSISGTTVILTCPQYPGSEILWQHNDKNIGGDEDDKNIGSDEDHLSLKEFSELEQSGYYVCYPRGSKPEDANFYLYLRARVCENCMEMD
Assay: SPR Biacore T200, CD3e homodimer on chip, vs unaltered GLS3000 antibody

First: B1
Second: B2
The “ratio of amounts bound (Z=Y/X)” value of the first is lower: 0.23 for the first, 0.24 for the second.

Going from B3 to B4, the “ratio of amounts bound (Z=Y/X)” value rises from 0.3 to 0.35.

Compared with B5, B6 is lower in “ratio of amounts bound (Z=Y/X)” value: 0.64 for the first, 0.26 for the second.

Compared with B7, B8 is lower in “ratio of amounts bound (Z=Y/X)” value: 0.3 for the first, 0.23 for the second.

Going from B9 to B10, the “ratio of amounts bound (Z=Y/X)” value falls from 0.39 to 0.2.

Compared with B11, B12 is higher in “ratio of amounts bound (Z=Y/X)” value: 0.23 for the first, 0.59 for the second.

Compared with B13, B14 is higher in “ratio of amounts bound (Z=Y/X)” value: 0.16 for the first, 0.29 for the second.

First: B15
Second: B16
The “ratio of amounts bound (Z=Y/X)” value of the first is lower: 0.3 for the first, 0.34 for the second.

Compared with B17, B18 is higher in “ratio of amounts bound (Z=Y/X)” value: 0.22 for the first, 0.59 for the second.

Going from B19 to B20, the “ratio of amounts bound (Z=Y/X)” value rises from 0.29 to 0.3.

B21 and B22 are the same in “ratio of amounts bound (Z=Y/X)” value: 0.24 for the first, 0.24 for the second.

Going from B23 to B24, the “ratio of amounts bound (Z=Y/X)” value rises from 1.02 to 2.17.

First: B25
Second: B26
The “ratio of amounts bound (Z=Y/X)” value of the first is higher: 0.5 for the first, 0.27 for the second.

First: B27
Second: B28
The “ratio of amounts bound (Z=Y/X)” value of the first is lower: 0.3 for the first, 0.63 for the second.

Compared with B29, B30 is higher in “ratio of amounts bound (Z=Y/X)” value: 0.18 for the first, 0.32 for the second.

First: B31
Second: B32
The “ratio of amounts bound (Z=Y/X)” value of the first is higher: 0.65 for the first, 0.23 for the second.

First: B33
Second: B34
The “ratio of amounts bound (Z=Y/X)” value of the first is lower: 0.3 for the first, 0.65 for the second.

Going from B35 to B36, the “ratio of amounts bound (Z=Y/X)” value falls from 0.89 to 0.78.

B37 and B38 are the same in “ratio of amounts bound (Z=Y/X)” value: 0.25 for the first, 0.25 for the second.

First: B39
Second: B40
The “ratio of amounts bound (Z=Y/X)” value of the first is lower: 0.22 for the first, 1.06 for the second.

Compared with B41, B42 is lower in “ratio of amounts bound (Z=Y/X)” value: 0.31 for the first, 0.24 for the second.

In the case of B43, the “ratio of amounts bound (Z=Y/X)” value is reported as 0.85.
